{"source": "paper PMC3058826", "target": "H3(1–15)K4 peptide (UniProt P68431)", "assay": "ITC", "data": [{"substance": "TRIM24 PHD-Bromo (PHD-linker-Bromo segment, residues 824–1006), wild type (from UniProt O15164 824-1006) (domain or fragment)", "values": [{"measurement": "Kd", "value": 8.6, "unit": "µM"}]}]}
